Test results published in paper PMC3006384, “Phosphorylation of Mouse Immunity-Related GTPase (IRG) Resistance Proteins Is an Evasion Strategy for Virulent Toxoplasma gondii” (PLoS Biology, 2010).

B1: recombinant wt Irga6 (bacterially expressed, from pGEX-4T-2-Irga6) [mouse] / itself (parent)
chain: MGQLFSSPKSDENNDLPSSFTGYFKKFNTGRKIISQEILNLIELRMRKGNIQLTNSAISDALKEIDSSVLNVAVTGETGSGKSSFINTLRGIGNEEEGAAKTGVVEVTMERHPYKHPNIPNVVFWDLPGIGSTNFPPNTYLEKMKFYEYDFFIIISATRFKKNDIDIAKAISMMKKEFYFVRTKVDSDITNEADGKPQTFDKEKVLQDIRLNCVNTFRENGIAEPPIFLLSNKNVCHYDFPVLMDKLISDLPIYKRHNFMVSLPNITDSVIEKKRQFLKQRIWLEGFAADLVNIIPSLTFLLDSDLETLKKSMKFYRTVFGVDETSLQRLARDWEIEVDQVEAMIKSPAVFKPTDEETIQERLSRYIQEFCLANGYLLPKNSFLKEIFYLKYYFLDMVTEDAKTLLKEICLRN

Variants of: B1
Assay: light scattering (GTP-dependent oligomerisation)
Conditions: with itself, value read at the last time point, 60 min, parent: 0.61, read off a plot

Row | Variant | response [a.u.]
1 | MGQLFSSPKSDENNDLPSSFTGYFKKFNTGRKIISQEILNLIELRMRKGNIQLTNSAISDALKEIDSSVLNVAVTGETGSGKSSFINTLRGIGNEEEGAAKTGVVEVDMERHPYKHPNIPNVVFWDLPGIGSTNFPPNTYLEKMKFYEYDFFIIISATRFKKNDIDIAKAISMMKKEFYFVRTKVDSDITNEADGKPQTFDKEKVLQDIRLNCVNTFRENGIAEPPIFLLSNKNVCHYDFPVLMDKLISDLPIYKRHNFMVSLPNITDSVIEKKRQFLKQRIWLEGFAADLVNIIPSLTFLLDSDLETLKKSMKFYRTVFGVDETSLQRLARDWEIEVDQVEAMIKSPAVFKPTDEETIQERLSRYIQEFCLANGYLLPKNSFLKEIFYLKYYFLDMVTEDAKTLLKEICLRN [chain 1 T108D] | 0.22
